Measurements published in publication PMC8639797.

Molecular target: ALK ECR^ABR variants with single substitutions in the TNF-like or EGF-like domains (BLI, Fig. 2d)
Assay: BLI

B1: ALKAL2-AD (residues 77–152) (domain or fragment)
chain: GPSPEQRVEIVPRDLRMKDKFLKHLTGPLYFSPKCSKHFHRLYHNTRDCTIPAYYKRCARLLTRLAVSPVCMEDKQ
fold reduction of affinity against wild type: 2 to 3 fold
